Data: patent US20240400715A1 (VIBRANT PHARMA, published 2024)
Positions count from the first letter of the chain named.

B1: 302 (TA3), configuration of FIG. 1W (bispecific antibody)
heavy: EVQLVESGGGLVQPGGSLRLSCAASGYSFTGYTMNWVRQAPGKGLEWVALINPYKGVSTYNQKFKDRFTISVDKSKNTAYLQMNSLRAEDTAVYYCARSGYYGDSDWYFDVWGQGTLVTVSSASTKGPSVFPLAPCSRSTSESTAALGCLVKDYFPEPVTVSWNSGALTSGVHTFPAVLQSSGLYSLSSVVTVPSSSLGTKTYTCNVDHKPSNTKVDKRVESKYGPPCPPCPAPEAAGGPSVFLFPPKPKDTLMISRTPEVTCVVVDVSQEDPEVQFNWYVDGVEVHNAKTKPREEQFNSTYRVVSVLTVLHQDWLNGKEYKCKVSNKGLPSSIEKTISKAKGQPREPQVYTLPPCQEEMTKNQVSLWCLVKGFYPSDIAVEWESNGQPENNYKTTPPVLDSDGSFFLYSRLTVDKSRWQEGNVFSCSVMHEALHNHYTQKSLSLSL
chain: EVQLVESGGGFVQAGESLTLSCTSSTLTFTPYRMAWYRQAPGKQRDLVADISSGDGRTTNYADFAKGRFTISRDNIKNTVFLRMTNLKPEDTAVYYCNTFVSFVGIARSWGQGTQVTVSSESKYGPPCPPCPAPEAAGGPSVFLFPPKPKDTLMISRTPEVTCVVVDVSQEDPEVQFNWYVDGVEVHNAKTKPREEQFNSTYRVVSVLTVLHQDWLNGKEYKCKVSNKGLPSSIEKTISKAKGQPREPQVCTLPPSQEEMTKNQVSLSCAVKGFYPSDIAVEWESNGQPENNYKTTPPVLDSDGSFFLVSRLTVDKSRWQEGNVFSCSVMHEALHNRFTQKSLSLSL
light: DIQMTQSPSSLSASVGDRVTITCRASQDIRNYLNWYQQKPGKAPKLLIYYTSRLESGVPSRFSGSGSGTDYTLTISSLQPEDFATYYCQQGNTLPWTFGQGTKVEIK
notes: not shown: kappa light chain constant domain (CL)
B2: 304 (TA5), configuration of FIG. 1W (bispecific antibody)
heavy: DVQLVQSGAEVKKPGASVKVSCKASGYTFTRYTMHWVRQAPGQGLEWIGYINPSRGYTNYADSVKGRFTITTDKSTSTAYMELSSLRSEDTATYYCARYYDDHYCLDYWGQGTTVTVSSASTKGPSVFPLAPCSRSTSESTAALGCLVKDYFPEPVTVSWNSGALTSGVHTFPAVLQSSGLYSLSSVVTVPSSSLGTKTYTCNVDHKPSNTKVDKRVESKYGPPCPPCPAPEAAGGPSVFLFPPKPKDTLMISRTPEVTCVVVDVSQEDPEVQFNWYVDGVEVHNAKTKPREEQFNSTYRVVSVLTVLHQDWLNGKEYKCKVSNKGLPSSIEKTISKAKGQPREPQVYTLPPCQEEMTKNQVSLWCLVKGFYPSDIAVEWESNGQPENNYKTTPPVLDSDGSFFLYSRLTVDKSRWQEGNVFSCSVMHEALHNHYTQKSLSLSL
chain: B1 chain
light: DIVLTQSPATLSLSPGERATLSCRASQSVSYMNWYQQKPGKAPKRWIYDTSKVASGVPARFSGSGSGTDYSLTINSLEAEDAATYYCQQWSSNPLTFGGGTKVEIK
notes: VL row printed 'TAS VL', read as TA5 VL; full chains assembled from parts; not shown: kappa light chain constant domain (CL)
B3: 305 (TA6), configuration of FIG. 1W (bispecific antibody)
heavy: EVQLVQSGAEVKKPGASVKVSCKASGYTFTNYYIHWVRQAPGQGLEWIGWIYPGDGNTKYNEKFKGRATLTADTSTSTAYLELSSLRSEDTAVYYCARDSYSNYYFDYWGQGTLVTVSSASTKGPSVFPLAPCSRSTSESTAALGCLVKDYFPEPVTVSWNSGALTSGVHTFPAVLQSSGLYSLSSVVTVPSSSLGTKTYTCNVDHKPSNTKVDKRVESKYGPPCPPCPAPEAAGGPSVFLFPPKPKDTLMISRTPEVTCVVVDVSQEDPEVQFNWYVDGVEVHNAKTKPREEQFNSTYRVVSVLTVLHQDWLNGKEYKCKVSNKGLPSSIEKTISKAKGQPREPQVYTLPPCQEEMTKNQVSLWCLVKGFYPSDIAVEWESNGQPENNYKTTPPVLDSDGSFFLYSRLTVDKSRWQEGNVFSCSVMHEALHNHYTQKSLSLSL
chain: B1 chain
light: DIVMTQSPDSLAVSLGERATINCKSSQSLLNSRTRKNYLAWYQQKPGQPPKLLIYWASTRESGVPDRFSGSGSGTDFTLTISSLQAEDVAVYYCTQSFILRTFGQGTKVEIK
notes: as for B1
B4: 306 (TA7), configuration of FIG. 1W (bispecific antibody)
heavy: B3 heavy with Y27F, N31S, G54E, D55N, G56D, G66D, A68V, L70I, S100G, N103R
chain: B1 chain
light: B3 light with P49S, A57T, E61K, T95K
notes: as for B1
B5: 210 (Fab (Light)-Knob+Fab (Heavy)-Hole-CEA) (bispecific antibody, human IgG4 S228P, kappa, F234A L235A)
light: QAVVTQESALTTSPGETVTLTCRSSTGAVTTSNYANWVQEKPDHLFTGLIGGTNKRAPGVPARFSGSLIGDKAALTITGAQTEDEAIYFCALWYSNLWVFGGGTKVEIKRTVAAPSVFIFPPSDEQLKSGTASVVCLLNNFYPREAKVQWKVDNALQSGNSQESVTEQDSKDSTYSLSSTLTLSKADYEKHKVYACEVTHQGLSSPVTKSFNRGECESKYGPPCPPCPAPEAAGGPSVFLFPPKPKDTLMISRTPEVTCVVVDVSQEDPEVQFNWYVDGVEVHNAKTKPREEQFNSTYRVVSVLTVLHQDWLNGKEYKCKVSNKGLPSSIEKTISKAKGQPREPQVYTLPPCQEEMTKNQVSLWCLVKGFYPSDIAVEWESNGQPENNYKTTPPVLDSDGSFFLYSRLTVDKSRWQEGNVFSCSVMHEALHNHYTQKSLSLSL
heavy: EVKLLESGGGLVQPKGSLKLSCAASGFTFNTYAMNWVRQAPGKGLEWVARIRSKYNNYATYYADSVKDRFTISRDDSQSILYLQMNNLKTEDTAMYYCVRHGNFGNSYVSWFAYWGQGTLVTVSSASTKGPSVFPLAPCSRSTSESTAALGCLVKDYFPEPVTVSWNSGALTSGVHTFPAVLQSSGLYSLSSVVTVPSSSLGTKTYTCNVDHKPSNTKVDKRVESKYGPPCPPCPAPEAAGGPSVFLFPPKPKDTLMISRTPEVTCVVVDVSQEDPEVQFNWYVDGVEVHNAKTKPREEQFNSTYRVVSVLTVLHQDWLNGKEYKCKVSNKGLPSSIEKTISKAKGQPREPQVCTLPPSQEEMTKNQVSLSCAVKGFYPSDIAVEWESNGQPENNYKTTPPVLDSDGSFFLVSRLTVDKSRWQEGNVFSCSVMHEALHNRFTQKSLSLSLGGGGSGGGGSEVQLVESGGGFVQAGESLTLSCTSSTLTFTPYRMAWYRQAPGKQRDLVADISSGDGRTTNYADFAKGRFTISRDNIKNTVFLRMTNLKPEDTAVYYCNTFVSFVGIARSWGQGTQVTVSS
notes: two-chain format: VL-CL fused to knob Fc

How the values were obtained:
[1] = target: T1, human CD3ε/δ (ACRO systems, CDD-H52W1) (human, UniProt P07766 23-126; P04234 22-105); test: serum-stability ELISA, Day 1 vs Day 0
T1 construct: bought recombinant heterodimer; also called human CD3 epsilon/delta; Human CD3ε/CD3δ
Procedure: (§1) The samples to be tested were centrifuged at 4° C. at 12000 rpm for 30 minutes to remove the precipitate. 200 μl of each sample to be tested (0.5 mg/ml) was collected in a 1.5 ml Eppendorf tube. An equal volume of human serum (GEMINI, H2OYOOK) was added, mixed thoroughly, and the mixture was incubated in a 37° C. constant temperature CO₂ incubator. For a total of 10 days, 40 μl samples was aspirated every day and stored at −20° C.
(§2) Enzyme-linked immunosorbent assay (ELISA) was used to test the bispecific antibodies' binding to human CEA and human CD3 epsilon/delta antigen. The steps are as follows: the antigen human CD3ε/δ (ACRO systems, CDD-H52W1) and the recombinant tumor antigen human CEA (CEACAM-5/CD66e, ACRO systems, CE5-H5226) were diluted to 1 μg/ml with PBS, and then added to the 96-well plate at 100 μl per well. The wells were coated overnight at 4° C. After washing 3 times with 0.05% PBST, 200 μl 5% skimmed milk powder was added to each well and incubated at 37° C. for 2 h. After washing 3 times with 0.05% PBST, 100 μl primary antibody sample (10 μg/ml) was added to each well, and incubated at 37° C. for 2 h. After washing 3 times with 0.05% PBST, 100 μl (1:6000) diluted secondary antibody goat anti-human Fc-HRP (sigma, A2170) was added to each well, incubated at room temperature for 1 h. After washing 8 times with 0.05% PBST, 50 μl TMB color developing solution was added to each well, and incubated at room temperature for 10-15 min. 50 μl 1 mM HCl was added to each well to stop the color development. 450 nm Absorbance (OD) was read.
(§3) The binding of antibodies to antigen was calculated according to the following formula: Binding (%)=[(ODdayn−ODb)/(ODday0−ODb)]×100%. ODdayn: experimental well (the protein was stored in the serum for n days); ODday0: control well (the protein was not stored in the serum); ODb: blank well (no primary antibody added).

[2] = target: T1, human CD3ε/δ (ACRO systems, CDD-H52W1); test: serum-stability ELISA, Day 2 vs Day 0
Procedure: as §1, §2, §3

[3] = target: T1, human CD3ε/δ (ACRO systems, CDD-H52W1); test: serum-stability ELISA, Day 5 vs Day 0
Procedure: as §1, §2, §3

[4] = target: T1, human CD3ε/δ (ACRO systems, CDD-H52W1); test: serum-stability ELISA, Day 6 vs Day 0
Procedure: as §1, §2, §3

[5] = target: T1, human CD3ε/δ (ACRO systems, CDD-H52W1); test: serum-stability ELISA, Day 7 vs Day 0
Procedure: as §1, §2, §3

[6] = target: T1, human CD3ε/δ (ACRO systems, CDD-H52W1); test: serum-stability ELISA, Day 9 vs Day 0
Procedure: as §1, §2, §3

[7] = target: T1, human CD3ε/δ (ACRO systems, CDD-H52W1); test: serum-stability ELISA, Day 10 vs Day 0
Procedure: as §1, §2, §3

[8] = target: T1, human CD3ε/δ (ACRO systems, CDD-H52W1); test: serum-stability ELISA, Day 0 (reference)
[9] = target: T1, human CD3ε/δ (ACRO systems, CDD-H52W1); test: serum-stability ELISA, Day 1 vs Day 0; remark: listed apart in the source
Procedure: as §1, §2, §3

[10] = target: T1, human CD3ε/δ (ACRO systems, CDD-H52W1); test: serum-stability ELISA, Day 2 vs Day 0; remark: listed apart in the source
Procedure: as §1, §2, §3

[11] = target: T1, human CD3ε/δ (ACRO systems, CDD-H52W1); test: serum-stability ELISA, Day 5 vs Day 0; remark: listed apart in the source
Procedure: as §1, §2, §3

[12] = target: T1, human CD3ε/δ (ACRO systems, CDD-H52W1); test: serum-stability ELISA, Day 6 vs Day 0; remark: listed apart in the source
Procedure: as §1, §2, §3

[13] = target: T1, human CD3ε/δ (ACRO systems, CDD-H52W1); test: serum-stability ELISA, Day 7 vs Day 0; remark: listed apart in the source
Procedure: as §1, §2, §3

[14] = target: T1, human CD3ε/δ (ACRO systems, CDD-H52W1); test: serum-stability ELISA, Day 9 vs Day 0; remark: listed apart in the source
Procedure: as §1, §2, §3

[15] = target: T1, human CD3ε/δ (ACRO systems, CDD-H52W1); test: serum-stability ELISA, Day 10 vs Day 0; remark: listed apart in the source
Procedure: as §1, §2, §3

[16] = target: T1, human CD3ε/δ (ACRO systems, CDD-H52W1); test: serum-stability ELISA, Day 0 (reference); remark: listed apart in the source

Row | Binder | Binding % [1] [%] | Binding % [2] [%] | Binding % [3] [%] | Binding % [4] [%] | Binding % [5] [%] | Binding % [6] [%] | Binding % [7] [%] | Binding % [8] [%] | Binding % [9] [%] | Binding % [10] [%] | Binding % [11] [%] | Binding % [12] [%] | Binding % [13] [%] | Binding % [14] [%] | Binding % [15] [%] | Binding % [16] [%]
1 | B1 | 108 | 104 | 110 | 107 | 104 | 103 | 106 | 100 |  |  |  |  |  |  |  | 
2 | B2 | 108 | 106 | 100 | 105 | 107 | 101 | 101 | 100 |  |  |  |  |  |  |  | 
3 | B3 | 112 | 109 | 110 | 111 | 110 | 109 | 108 | 100 |  |  |  |  |  |  |  | 
4 | B4 | 112 | 110 | 115 | 101 | 105 | 95.1 | 112 | 100 |  |  |  |  |  |  |  | 
5 | B5 |  |  |  |  |  |  |  |  | 105 | 102 | 97.3 | 101 | 102 | 101 | 101 | 100
